Source: the supplement of paper PMC10724198
± gives the standard deviation of the averaged measurements.

What was measured:
Saccharomyces cerevisiae [1] = test: protein stability index of tFT-peptide fusion (C-terminal peptide) (PSI (0-1 scale)); higher = more stable (slower turnover)
Experimental: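 MPS profiling in S. cerevisiae of the tFT-X12 degron library: putative degron peptides plus stable controls, 12 aa, fused to the C-terminus of a sfGFP-mCherry timer. Cells are FACS-sorted into 8 mCherry/sfGFP bins and deep-sequenced. PSI runs from 0 (unstable) to 1 (stable). Backgrounds are wild type, das1Δ and doa10Δ at 30 °C, and wild type, das1Δ, cdc34-1 and cdc53-1 at 37 °C; 2-3 technical replicates each.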

Saccharomyces cerevisiae [2] = test: as above; details: genetic background: wild type; temperature: 30 C
[3] = genetic background: cdc34-1, temperature: 37 C
[4] = genetic background: cdc53-1, temperature: 37 C
[5] = genetic background: das1 deletion, temperature: 30 C
[6] = genetic background: das1 deletion, temperature: 37 C
[7] = genetic background: doa10 deletion, temperature: 30 C
[8] = genetic background: wild type, temperature: 30 C
[9] = genetic background: wild type, temperature: 37 C
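Note: PSI is a weighted mean of sequencing reads over stability bins, variants kept only with over 10 reads, mCherry proximal and sfGFP distal, peptide attached via GGGS linker.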

| Sequence | protein stability index (Saccharomyces cerevisiae [1]; [3]) | protein stability index (Saccharomyces cerevisiae [1]; [4]) | protein stability index (Saccharomyces cerevisiae [1]; [5]) | protein stability index (Saccharomyces cerevisiae [1]; [6]) | protein stability index (Saccharomyces cerevisiae [1]; [7]) | protein stability index (Saccharomyces cerevisiae [1]; [8]) | protein stability index (Saccharomyces cerevisiae [1]; [9]) | protein stability index (Saccharomyces cerevisiae [2]) |
| --- | --- | --- | --- | --- | --- | --- | --- | --- |
| YFRKDYRKMAQH | 0.594 ± 0.049 | 0.74478 ± 0.00072 | 0.669 ± 0.06 | 0.7429 ± 0.0026 | 0.17256 ± 0.00013 | 0.163 ± 0.046 | 0.453 ± 0.055 | 0.255 ± 0.15 |
| CTYSLSVLFVFF | 0.396 ± 0.014 | 0.51 ± 0.067 | 0.3 ± 0.03 | 0.51 ± 0.056 | 0.252 ± 0.012 | 0.307 ± 0.035 | 0.4462 ± 0.0024 | 0.382 ± 0.024 |
| WLKLWSYVTHLG | 0.66 ± 0.047 | 0.723 ± 0.0092 | 0.632 ± 0.025 | 0.717 ± 0.022 | 0.303 ± 0.0094 | 0.346 ± 0.021 | 0.581 ± 0.017 | 0.477 ± 0.036 |
| ISVRKTFLIVLC | 0.331 ± 0.031 | 0.351 ± 0.018 | 0.266 ± 0.047 | 0.486 ± 0.01 | 0.152 ± 0.015 | 0.156 ± 0.013 | 0.279 ± 0.025 | 0.232 ± 0.022 |
| WILLVLACFSSG | 0.25 ± 0.0033 | 0.335 ± 0.051 | 0.272 ± 0.036 | 0.40822 ± 2.1e-05 | 0.215 ± 0.011 | 0.249 ± 0.034 | 0.361 ± 0.017 | 0.325 ± 0.0036 |
| GLVSCWIDPSMA | 0.697 ± 0.0081 | 0.77 ± 0.032 | 0.635 ± 0.0088 | 0.73 ± 0.025 | 0.597 ± 0.021 | 0.628 ± 0.03 | 0.708 ± 0.023 | 0.714 ± 0.04 |
| RFLACSIRYLVY | 0.294 ± 0.012 | 0.425 ± 0.037 | 0.286 ± 0.025 | 0.41 ± 0.008 | 0.227 ± 0.0073 | 0.277 ± 0.018 | 0.4 ± 0.027 | 0.332 ± 0.025 |
| CLLLILCFLCVR | 0.382 ± 0.0078 | 0.355 ± 0.017 | 0.343 ± 0.021 | 0.4415 ± 0.00095 | 0.364 ± 0.028 | 0.321 ± 0.02 | 0.401 ± 0.016 | 0.359 ± 0.026 |
| VFGVWVVVGCVG | 0.028 ± 0.007 | 0.101 ± 0.03 | 0.149 ± 0.037 | 0.215 ± 0.01 | 0.123 ± 0.019 | 0.143 ± 0.013 | 0.197 ± 0.013 | 0.248 ± 0.0043 |
| FDWLFFFVNFVV | 0.407 ± 0.063 | 0.511 ± 0.033 | 0.475 ± 0.018 | 0.546 ± 0.029 | 0.174 ± 0.0022 | 0.163 ± 0.019 | 0.24 ± 0.0068 | 0.2459 ± 0.00064 |
| GRFGVGVVFRLA | 0.669 ± 0.038 | 0.72 ± 0.016 | 0.637 ± 0.028 | 0.719 ± 0.01 | 0.347 ± 0.032 | 0.393 ± 0.027 | 0.6096 ± 0.0043 | 0.456 ± 0.043 |
| RGWWWFVVVLCR | 0.165 ± 0.0082 | 0.139 ± 0.0061 | 0.216 ± 0.033 | 0.316 ± 0.0084 | 0.2215 ± 0.00025 | 0.197 ± 0.012 | 0.2951 ± 0.0014 | 0.329 ± 0.028 |
| GAFAGDVWRCVV | 0.627 ± 0.02 | 0.755 ± 0.02 | 0.653 ± 0.025 | 0.778 ± 0.014 | 0.154 ± 0.0073 | 0.165 ± 0.026 | 0.2682 ± 0.0021 | 0.297 ± 0.024 |
| VVNFLVFRFFCI | 0.53 ± 0.046 | 0.531 ± 0.015 | 0.481 ± 0.029 | 0.649 ± 0.026 | 0.216 ± 0.016 | 0.217 ± 0.037 | 0.39 ± 0.018 | 0.285 ± 0.06 |
| VRICVVLRVCWW | 0.0855 ± 0.0017 | 0.139 ± 0.00094 | 0.115 ± 0.034 | 0.217 ± 0.0071 | 0.117 ± 0.034 | 0.12 ± 0.024 | 0.18 ± 0.0089 | 0.256 ± 0.092 |
| VMIFYVLGRVWD | 0.428 ± 0.0048 | 0.5209 ± 0.0028 | 0.293 ± 0.056 | 0.594 ± 0.025 | 0.27 ± 0.0079 | 0.314 ± 0.033 | 0.581 ± 0.082 | 0.455 ± 0.0091 |
| FRFFYLPVSVVA | 0.0275 ± 0.013 | 0.0356 ± 0.0058 | 0.146 ± 0.036 | 0.1275 ± 0.00029 | 0.105 ± 0.02 | 0.142 ± 0.021 | 0.0865 ± 0.013 | 0.223 ± 0.027 |
| RLDAPGLSRTEN | 0.66 ± 0.04 | 0.68 ± 0.011 | 0.647 ± 0.044 | 0.683 ± 0.0075 | 0.66 ± 0.026 | 0.646 ± 0.078 | 0.671 ± 0.017 | 0.513 ± 0.12 |
| HCSRMIIIFLFL | 0.312 ± 0.044 | 0.425 ± 0.042 | 0.276 ± 0.045 | 0.488 ± 0.039 | 0.303 ± 0.061 | 0.282 ± 0.013 | 0.514 ± 0.038 | 0.371 ± 0.035 |
| SPGFVLLAVLVI | 0.1636 ± 0.0011 | 0.235 ± 0.0088 | 0.231 ± 0.029 | 0.356 ± 0.016 | 0.194 ± 0.002 | 0.214 ± 0.025 | 0.323 ± 0.04 | 0.347 ± 0.086 |
